According to paper PMC11933560:

Biological target: mCherry-LHBs (HBV large envelope protein with mCherry at the N-terminus) (Hepatitis B virus) (UniProt P03138)
Test: FRET or BRET

## mCherry-LHBs (HBV large envelope protein with mCherry at the N-terminus) (from UniProt P03138 1-389) (natural protein)
  FRET efficiency: 35%
